In doi:10.1101/2023.03.02.530591:

Biological target: Human Macrophage Galactose Lectin (MGL) isoform 2 extracellular domain (residues Q85-H316) (human)
Experiment: SAXS

**Q.** With “Human Macrophage Galactose Lectin (MGL) isoform 2 extracellular domain (residues Q85-H316) (domain or fragment)” as the substance, how does the stoichiometry N read?
**A.** Its stoichiometry N is 3.
